We go through five molecules from patent US20060121022A1 (Chugai, published 2006).

Data set [1] deals with T1, recombinant PCI (with Flag tag) (UniProt P05154).
T1 sequence: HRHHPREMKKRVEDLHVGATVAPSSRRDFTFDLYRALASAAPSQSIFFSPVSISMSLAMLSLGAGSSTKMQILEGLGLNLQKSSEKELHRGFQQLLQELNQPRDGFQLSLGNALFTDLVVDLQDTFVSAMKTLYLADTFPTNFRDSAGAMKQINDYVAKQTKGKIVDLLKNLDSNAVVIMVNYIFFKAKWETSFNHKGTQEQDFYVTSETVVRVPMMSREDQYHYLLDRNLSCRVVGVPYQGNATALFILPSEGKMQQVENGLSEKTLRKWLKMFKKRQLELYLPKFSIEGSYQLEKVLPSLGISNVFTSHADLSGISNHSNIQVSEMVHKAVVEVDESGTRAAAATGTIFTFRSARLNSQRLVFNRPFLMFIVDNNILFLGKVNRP

In data set [2] the target is activated protein C (aPC; protein C from human plasma, activated, SIGMA P-2200) (human, UniProt P04070 43-461). The data set is described as follows: cell-based or functional assay.
Chain of activated protein C (aPC; protein C from human plasma, activated, SIGMA P-2200) (P04070 43-461): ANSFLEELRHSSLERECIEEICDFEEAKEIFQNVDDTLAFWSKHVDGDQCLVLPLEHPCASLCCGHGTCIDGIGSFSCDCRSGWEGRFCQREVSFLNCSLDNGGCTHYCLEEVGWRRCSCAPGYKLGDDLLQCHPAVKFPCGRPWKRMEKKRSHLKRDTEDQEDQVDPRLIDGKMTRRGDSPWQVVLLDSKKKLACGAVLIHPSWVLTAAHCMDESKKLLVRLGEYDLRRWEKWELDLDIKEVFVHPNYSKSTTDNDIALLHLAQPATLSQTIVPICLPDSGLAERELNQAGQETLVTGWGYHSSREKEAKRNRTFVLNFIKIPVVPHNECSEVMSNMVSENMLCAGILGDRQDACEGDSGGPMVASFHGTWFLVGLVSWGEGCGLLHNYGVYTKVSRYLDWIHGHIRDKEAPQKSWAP

As for “activated protein C (aPC; protein C from human plasma, activated, SIGMA P-2200)”, in data set [1], the absorbance (at 405 nm), substrate S-2366; CONTROL (aPC with PCI, no antibody), AVERAGE (absorbance at 405 nm) was determined as 0.262; the absorbance (at 405 nm), substrate S-2366; CONTROL (aPC with PCI, no antibody), first replicate (absorbance at 405 nm) was found to be 0.278; the absorbance (at 405 nm), substrate S-2366; CONTROL (aPC with PCI, no antibody), second replicate (absorbance at 405 nm) is 0.245.

B1: anti-aPC antibody aPC#79 (hybridoma well No. 79) (antibody, IgG2b, V domains shown)
VH: QVQLQQSGAELARPGASVKLSCKASGYTFTDSYMNWVKQRTGQGLEWIGEVYPETGNSYYNEKFKGKATLTADRSSKTAYMQLNSLTSEDSAVYFCTRGGTGFDYWGQGTTLTVSS
VL: QIVLAQSPAIMSASLGERVTMTCTASSSVSSSYLHWYQQKPGSSPKAWIYSTSNLASGAPTRFSGSGSGTSYSLTISSMEAEDAATYYCHQYHRSPFTFGSGTKLEIK
Take B1: in data set [2], the “…ON SUPPRESSION RATE (%), EXPERIMENT 1 (APTT coagulation time, human plasma)” value came to 88% and the “…ON SUPPRESSION RATE (%), EXPERIMENT 2 (APTT coagulation time, human plasma)” value worked out at 68.3%.

B2: anti-aPC antibody aPC#123 (hybridoma well No. 123) (antibody, IgG2b, V domains shown)
VH: QVQLQQSGPELVKPGASVKISCKASGYAFSSSWMNWVKQRPGQGLEWIGRIYPGDGDTNYNGKFRGKATLTADKSSSTAYMQLTSLTSVDSAVYFCARWGITTAAWFAYWGQGTLVTVSA
VL: DIQMTQSPASLSASVGETVTITCRTSENIYSYLAWYQQKQGKSPQLLVNNAKTLAEGVPSRFSGSGSGTQFSLKINSLQPEDFGTYYCQHYYGTPPTFGGGTKLEIK
On to B2, for which, in data set [2], the “…ON SUPPRESSION RATE (%), EXPERIMENT 1 (APTT coagulation time, human plasma)” value amounted to 23.4% and the “…ON SUPPRESSION RATE (%), EXPERIMENT 2 (APTT coagulation time, human plasma)” value amounted to 20.7%.

B3: anti-aPC antibody aPC#285 (hybridoma well No. 285) (antibody, IgG1, V domains shown)
VH: QVQLQQSGSEVVKPGASVKISCKASGYAFSRSWMNWVKQRPGQGLEWIGRIYPGDGDSIYNGKFKGKATLTADKSSTTAYMHLNSLTSVDSAVYFCARWGSSGSSWFAYWGQGTLVTVSA
VL: DIQMTQSPASLSASMGETVTITCRTSENIYSYLAWYRQKQGKSPQLLVYNAKTLAEGVPSRFSGSGSGTQFSLRINSLQPEDFGSYFCQHYYGSPYTFGGGTKLEIK
B3: in data set [2], the “…ON SUPPRESSION RATE (%), EXPERIMENT 1 (APTT coagulation time, human plasma)” value worked out at 24.5% and the “…ON SUPPRESSION RATE (%), EXPERIMENT 2 (APTT coagulation time, human plasma)” value turned out to be 28.2%.

B4: anti-aPC antibody aPC#281 (hybridoma well No. 281) (antibody, IgG1, V domains shown)
VH: QIQLVQSGPELEKPGETVRISCKASGYTFTDYSLHWVKQAPGKGLKWMGWINTETGEPTYADDLKGRFAFSLETSATTAYLQINNLKNEDTATYFCARGITLDYWGQGTSLTVSS
VL: DNVMSQSPSSLAVSVGEKVTMSCKSSQSLLSSSNQKNFLAWYQQKPGQSPKLLISWASTRHSGVPDRFTGSGSGTDFTLTISSVNAEDLAVYYCQQYYRYPLTFGAGTKLELK
On to B4, for which, in data set [2], the “…ON SUPPRESSION RATE (%), EXPERIMENT 1 (APTT coagulation time, human plasma)” value amounted to 33.8% and the “…ON SUPPRESSION RATE (%), EXPERIMENT 2 (APTT coagulation time, human plasma)” value is 21.6%.
